{"source": "patent US7838495B2", "about": "“Compositions and methods of use of EPB1, and ErbB3 binding protein” (University of Maryland, Baltimore, priority 2007, dated 2010)", "key": {"C81 cells": {"system": "C81 cells", "test": "HRG-induced growth of C81 transfectants", "format": "cell-based, human", "conditions": "ectopic expression of EBP1, androgen-free media", "method": "FIG. 6A-C. EBP1 overexpression inhibits the response to HRG A. EBP1 and vector control transfected cells were plated in complete media at 5×10^3 cells/well for one day. The next day, cells were switched to steroid reduced-media and HRG added at the indicated concentrations. Total cell numbers were determined seven days later by MTT assay. Each point represents mean±S.E. of 6 wells. Data is representative of three experiments. B. AKT activation in response to HRG C81-EBP1 or vector control cells were serum starved overnight and then treated with HRG (20 ng/ml) for the indicated times (mm). Cell lysates were immunoblotted with antibody to phospho-AKT or total AKT as indicated. C. […]\nWestern Blot Analysis. […] For soft agar growth assays, increasing concentrations of cells (as indicated) were plated in 35 mm Petri dishes in 0.3% agar in complete media and colonies were counted after 10 days of incubation (21). […] Relative cell growth was determined using a Promega Proliferation Reagent (Promega, Madison Wis.) as per manufacturer's instructions with absorbance being read at […] using a Dynex plate reader. […] Luciferase activity was determined using the Promega Dual luciferase assay kit as described by the manufacturer. […] Tumors were measured with calipers. Tumor volumes were calculated by the formula width^2×length/2 […]. Mean tumor volume±S.D. were calculated and plotted against time. […]"}, "AU565 cells": {"system": "AU565 cells", "test": "Western blot of ErbB2 in AU565 EBP1 transfectants", "format": "cell-based, human", "method": "FIG. 10A-C. Effect of ectopic expression of EBP1 on ErbB3 or ErbB2 protein levels. (A and B) Lysates of logarithmically growing MCF-7 vector control cells (CMV) or EBP1 transfected cells (Ebp1) or (C) AU565 cells were blotted with antibodies for ErbB3 or ErbB2 and actin as indicated. Data are representative of three experiments.\n2.5. Western blot analysis. Total cell extracts were prepared by direct lysis of cells with lysis buffer [50 mM Tris-HCl (pH 7.4), 1 mM EDTA, 250 mM NaCl, 1% Triton X-100, 0.5 mM DTT, and 1× Complete™ protease inhibitor]. Protein concentrations were measured using a detergent compatible kit (Bio-Rad). Proteins (30 lg per well) were resolved by SDS-PAGE, transferred to PVDF membranes, and immunoblotted as described. […] Images were quantified using IMAGE-J software (NIH). […] Relative cell numbers were determined 4 days later using a Promega Proliferation Reagent as per manufacturer's instructions with absorbance being read at 490 nm using a Dynex plate reader. […] Data were analyzed using a two-tailed Students t-test and a p <0.05 was deemed statistically significant. […]"}}}
{"molecule": "EBP1: ErbB3 binding protein (SEQ ID NO: 2), AR corepressor, here ectopically expressed in cancer cells by stable transfection of an expression plasmid (protein, listed as Homo sapiens, FLAG tag) MSGEDEQQEQTIAEDLVVTKYKMGGDIANRVLRSLVEASSSGVSVLSLCEKGDAMIMEETGKIFKKEKEMKKGIAFPTSISVNNCVCHFSPLKSDQDYILKEGDLVKIDLGVHVDGFIANVAHTFVVDVAQGTQVTGRKADVIKAAHLCAEAALRLVKPGNQNTQVTEAWNKVAHSFNCTPIEGMLSHQLKQHVIDGEKTIIQNPTDQQKKDHEKAEFEVHEVYAVDVLVSSGEGKAKDAGQRTTIYKRDPSKQYGLKMKTSRAFFSEVERRFDAMPFTLRAFEDEKKARMGVVECAKHELLQPFNVLYEKEGEFVAQFKFTVLLMPNGPMRITSGPFEPDLYKSEMEVQDAELKALLQSSASRKTQKKKKKKASKTAENATSGETLEENEAGD", "values": [{"measurement": "ability of C81 cells to grow in response to HRG", "setting": "C81 cells", "value": "completely abrogated"}, {"measurement": "decrease of ErbB2 protein", "setting": "AU565 cells", "value": 57, "unit": "%"}]}
